Assay results taken from patent US20140120095A1 (Boehringer Ingelheim, published 2014).
Where a chain is given by its changes, count along the chain named.

Columns and labels:
[1] = target: T1, recombinant human VEGF165 (human, UniProt P15692-4 27-191, biotinylated in the competition assays); assay: AlphaScreen, hVEGF165/hVEGFR2-Fc competition, -HSA
T1 construct: Bought protein; also called hVEGF165; rhVEGF165

[2] = target: T1, recombinant human VEGF165; assay: AlphaScreen, hVEGF165/hVEGFR2-Fc competition, +5 uM HSA
Method: These 2 competition assays are also performed after preincubation of the VHHs with 5 μM human serum albumin.

[3] = target: T1, recombinant human VEGF165; assay: AlphaScreen, hVEGF165/hVEGFR1-Fc competition, -HSA
[4] = target: T2, mouse DLL4, full length, overexpressed on CHO cells (mouse, UniProt Q9JI71 27-686); assay: FMAT, hNotch1-Fc on CHO-mDLL4, -HSA
T2 construct: whole, on cells; also called mDLL4; CHO-mDLL4

[5] = target: T2, mouse DLL4, full length, overexpressed …; assay: FMAT, hNotch1-Fc on CHO-mDLL4, +25 uM HSA
[6] = target: VEGF (used to stimulate HUVEC cells) (UniProt P15692-4 27-191, limits assumed); assay: cell-based or functional assay
[7] = target: T3, human DLL4, full length, overexpressed on cells (human, UniProt Q9NR61 27-685); assay: FMAT, hNotch1-Fc on CHO-hDLL4, +25 uM HSA
T3 construct: CHO cells in FMAT, HEK293 cells in the reporter assay; also called hDLL4; CHO-hDLL4

[8] = target: T3, human DLL4, full length, overexpressed …; assay: FMAT, hNotch1-Fc on CHO-hDLL4, -HSA
[9] = target: T3, human DLL4, full length, overexpressed …; assay: cell-based or functional assay
[10] = target: T4, recombinant human DLL4 (C-terminally His-tagged extracellular domain, R&D Systems) (human, UniProt Q9NR61 25-522, biotinylated in the competition ELISA); assay: SPR (Biacore), recombinant human DLL4
T4 construct: also called rhDLL4; hDLL4
Method: Kinetic analysis to determine the affinity of the DII4-VHH interaction is performed by Surface Plasmon Resonance (SPR) on a Biacore T100 instrument. […] Purified VHHs or Fab fragment are injected for 2 minutes at different concentrations (between 10 and 300 nM) and allowed to dissociate for 20 min at a flow rate of 45 μl/min. Between sample injections, the surfaces are regenerated with 10 mM glycine pH1.5 and 100 mM HCl. HBS-N (Hepes buffer pH7.4) is used as running buffer. If possible, data are evaluated by fitting a 1:1 interaction model (Langmuir binding) onto the binding curves. The affinity constant KD is calculated from resulting association and dissociation rate constants (kₐ) and […].

[11] = target: T5, human DLL4 expressed on cells (CHO-hDLL4; HEK293-hDLL4) (human, UniProt Q9NR61 27-685); assay: competition FMAT, labelled hNotch1-Fc on CHO-hDLL4 cells
T5 construct: full length human DLL4 overexpressed on CHO cells (FMAT, FACS) or HEK293 cells (reporter assay)

[12] = target: T5, human DLL4 expressed on cells …; assay: cell-based or functional assay
[13] = target: T6, VEGFD (UniProt O43915 93-201, limits assumed); assay: solid phase binding ELISA on coated VEGF D (Example 12.8)
T6 sequence (looked up): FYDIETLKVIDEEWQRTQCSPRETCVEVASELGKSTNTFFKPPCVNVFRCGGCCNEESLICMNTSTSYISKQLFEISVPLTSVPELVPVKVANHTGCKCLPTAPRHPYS
Method: (§1) Binding to VEGFB, VEGFC, VEGFD and PIGF is assessed via a solid phase binding ELISA. […] Wells are blocked with a casein solution (1% in PBS). […] As positive controls serial dilutions of the appropriate receptors are taken along and detected with horseradish peroxidase (HRP)-conjugated goat anti-human IgG, Fc specific antibody (Jackson Immuno Research Laboratories Inc., West Grove, Pa., USA) and a subsequent enzymatic reaction in the presence of the substrate TMB (3,3′,5,5′-tetramentylbenzidine) (Pierce, Rockford, Ill., USA).

[14] = target: T7, PIGF (UniProt P49763-2 21-149, limits assumed); assay: solid phase binding ELISA on coated PIGF (Example 12.8)
T7 construct: also called placenta growth factor
T7 sequence (looked up): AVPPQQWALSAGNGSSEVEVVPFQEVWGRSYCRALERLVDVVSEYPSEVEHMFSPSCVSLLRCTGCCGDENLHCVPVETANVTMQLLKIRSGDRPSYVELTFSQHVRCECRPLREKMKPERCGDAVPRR
Method: as §1

[15] = target: T8, VEGFC (UniProt P49767 103-227, limits assumed); assay: binding ELISA on coated VEGFC (Example 12.8), OD 450 nm
T8 sequence (looked up): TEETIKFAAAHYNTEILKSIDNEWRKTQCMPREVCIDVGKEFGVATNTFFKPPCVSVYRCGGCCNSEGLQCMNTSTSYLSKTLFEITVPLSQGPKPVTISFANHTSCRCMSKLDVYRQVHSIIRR
Method: as §1

[16] = target: T9, VEGFB (UniProt P49765-2 22-188, limits assumed); assay: binding ELISA on coated VEGFB (Example 12.8), OD 450 nm
T9 sequence (looked up): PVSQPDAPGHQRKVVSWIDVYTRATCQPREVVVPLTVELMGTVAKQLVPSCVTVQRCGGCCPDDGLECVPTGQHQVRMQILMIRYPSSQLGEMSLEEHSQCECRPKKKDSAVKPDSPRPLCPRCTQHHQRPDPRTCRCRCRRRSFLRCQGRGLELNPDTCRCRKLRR
Method: as §1

[17] = target: T1, recombinant human VEGF165; assay: ProteOn off-rate assay, periplasmic extract on coated hVEGF165
Method: One additional variant is constructed in which the potential oxidation site at position M30 (CDR1 region, see FIG. 38 indicated as bold italic residue) is removed by introduction of a M30I mutation. […] Off-rates are calculated and compared to the off-rates of the parental VEGFBII5B05.

T1 sequence (P15692 other isoform, or with tags, fused parts or gaps): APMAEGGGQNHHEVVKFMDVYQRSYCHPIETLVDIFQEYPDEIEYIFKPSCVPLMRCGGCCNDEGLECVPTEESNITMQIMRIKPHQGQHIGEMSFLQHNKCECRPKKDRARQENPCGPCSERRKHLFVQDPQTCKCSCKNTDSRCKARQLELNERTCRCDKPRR
Sequence of VEGF (used to stimulate HUVEC cells) (P15692 other isoform, or with tags, fused parts or gaps limits assumed): as the sequence (P15692 other isoform, or with tags, fused parts or gaps) above
T2 sequence (Q9JI71 27-686): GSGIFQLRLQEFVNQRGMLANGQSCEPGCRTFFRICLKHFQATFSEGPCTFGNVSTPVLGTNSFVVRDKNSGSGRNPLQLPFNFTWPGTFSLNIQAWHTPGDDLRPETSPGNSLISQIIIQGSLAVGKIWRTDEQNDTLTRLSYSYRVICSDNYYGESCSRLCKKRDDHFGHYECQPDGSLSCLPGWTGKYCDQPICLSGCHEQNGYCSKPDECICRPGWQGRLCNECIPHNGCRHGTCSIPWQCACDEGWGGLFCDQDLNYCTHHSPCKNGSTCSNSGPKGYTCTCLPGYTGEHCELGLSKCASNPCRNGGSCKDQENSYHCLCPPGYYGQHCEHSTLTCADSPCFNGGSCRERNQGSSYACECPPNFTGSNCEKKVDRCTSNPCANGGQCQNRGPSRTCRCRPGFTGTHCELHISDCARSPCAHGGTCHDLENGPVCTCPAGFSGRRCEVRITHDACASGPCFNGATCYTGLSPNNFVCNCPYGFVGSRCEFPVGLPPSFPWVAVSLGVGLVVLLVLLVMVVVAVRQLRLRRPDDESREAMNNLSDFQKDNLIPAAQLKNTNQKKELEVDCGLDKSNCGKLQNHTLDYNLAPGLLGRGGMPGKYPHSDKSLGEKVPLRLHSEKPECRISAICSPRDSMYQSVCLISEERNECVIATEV

B1: VEGFDLLBII014 (bispecific antibody)
chain: EVQLVESGGGLVQTGDSLRLSCEVSGRTFSSYSMGWFRQAQGKEREFVVAISKGGYKYDSVSLEGRFTISKDNAKNTVYLQINSLKPEDTAVYYCASSRAYGSSRLRLADTYEYWGQGTQVTVSSGGGGSGGGSEVQLVESGGGLVQPGGSLRLSCVASGIRFMSMAWYRQAPGKHRELVARISSGGTTAYVDSVKGRFTISRDNSKNTVYLQMNSLKAEDTAVYYCNTFSSRPNPWGAGTQVTVSSGGGGSGGGGSGGGGCGGGGSGGGGSGGGGSGGGGSEVQLVESGGGLVQAGGSLRLSCAASGRTFSSYAMAWYRQAPGKEREYVAAIRWSGGTAYYADSVQGRFTISRDNAKNTVYLQMNSLKPEDTAVYYCANRAPDTRLAPYEYDHWGQGTQVTVSS
modifications: PEGylated at the Cys at position 15 of the 35 Gly-Ser linker
notes: VEGFBII23B04 - 9GS - VEGFBII5B05 - 35GS(Cys15) - DLLBII129B05
B1 was tested, and the “% inh” value [1] was 100%, the IC50 [1] was 0.026 nM and the “% inh” value [2] was 100%. For the same binder, the IC50 [2] was 0.024 nM, the “% inh” value [3] was 94% and the IC50 [3] was 0.08 nM. The “% inh” value [4] was 100%, the IC50 [4] was 15.4 nM and the “% inh” value [5] was 100%. For the same binder, the IC50 [5] was 15.4 nM, the “% inhibition, VEGF HUVEC proliferation assay, -HSA” value [6] was 98% and the “IC50, VEGF HUVEC proliferation assay, -HSA” value [6] was 0.49 nM. The “% inh” value [7] was 100%, the IC50 [7] was 12.3 nM and the “% inh” value [8] was 100%. The IC50 [8] was 9.9 nM and the “IC50, DLL4 mediated reporter assay, +HSA” value [9] was 122 nM.

B2: VEGFDLLBII015 (bispecific antibody)
chain: EVQLVESGGGLVQTGDSLRLSCEVSGRTFSSYSMGWFRQAQGKEREFVVAISKGGYKYDSVSLEGRFTISKDNAKNTVYLQINSLKPEDTAVYYCASSRAYGSSRLRLADTYEYWGQGTQVTVSSGGGGSGGGGSGGGGCGGGGSGGGGSGGGGSGGGGSEVQLVESGGGLVQPGGSLRLSCVASGIRFMSMAWYRQAPGKHRELVARISSGGTTAYVDSVKGRFTISRDNSKNTVYLQMNSLKAEDTAVYYCNTFSSRPNPWGAGTQVTVSSGGGGSGGGGSGGGGSGGGGSGGGGSGGGGSGGGGSEVQLVESGGGLVQAGGSLRLSCAASGRTFSSYAMAWYRQAPGKEREYVAAIRWSGGTAYYADSVQGRFTISRDNAKNTVYLQMNSLKPEDTAVYYCANRAPDTRLAPYEYDHWGQGTQVTVSS
modifications: PEGylated at the Cys at position 15 of the 35 Gly-Ser linker
notes: VEGFBII23B04 - 35GS(Cys15) - VEGFBII5B05 - 35GS - DLLBII129B05
In the case of B2, the “% inh” value [1] is reported as 100%, the IC50 [1] is reported as 0.016 nM and the “% inh” value [2] is reported as 100%. For the same binder, the IC50 [2] was 0.015 nM, the “% inh” value [3] was 96% and the IC50 [3] was 0.04 nM. For the same binder, the “% inh” value [4] was 100%, the IC50 [4] was 12.2 nM and the “% inh” value [5] was 100%. For the same binder, the IC50 [5] was 11.2 nM, the “% inhibition, VEGF HUVEC proliferation assay, -HSA” value [6] was 109% and the “IC50, VEGF HUVEC proliferation assay, -HSA” value [6] was 0.49 nM. For the same binder, the “% inh” value [7] was 100%, the IC50 [7] was 10 nM and the “% inh” value [8] was 100%. The IC50 [8] was 9.5 nM and the “IC50, DLL4 mediated reporter assay, +HSA” value [9] was 134 nM.

B3: DLLBII017 (VHH, not shown: small tags and cut ends)
VHH: EVQLVESGGGLVQPGGSLRLSCAASGRTFSSYAMAWYRQAPGKEREYVAAIRWSGGTAYYADSVQGRFTISRDNAKNTVYLQMNSLRPEDTAVYYCANRAPDTRLAPYEYDHWGQGTLVTVSS
B3 showed a Kd [10] of 0.2 nM, a koff [10] of 8e-05 s⁻¹ and a kon [10] of 370000 M⁻¹ s⁻¹. The IC50 [11] was 12.1 nM and the “IC50, DLL4-mediated reporter assay (hDLL4)” value [12] was 126 nM.

B4: VEGFBII024 (VHH)
chain: EVQLVESGGGLVQTGDSLRLSCEVSGRTFSSYSMGWFRQAQGKEREFVVAISKGGYKYDSVSLEGRFTISKDNAKNTVYLQINSLKPEDTAVYYCASSRAYGSSRLRLADTYEYWGQGTQVTVSSGGGGSGGGGSGGGGSGGGGSGGGGSGGGGSGGGGSGGGGSEVQLVESGGGLVQAGGSLRLSCTASGSAFKSYRMGWFRRTPGKEDEFVASISWTYGSTFYADSVKGRFTMSRDKAKNAGYLQMNSLKPEDTALYYCAAGAQSDRYNIRSYDYWGQGTQVTVSS
notes: bivalent (heterodimeric) VHH; also called VEGFBII23B04-40GS-86H09
B4: no binding (tested: about 5e-7 M) [13]; no binding (tested: about 5e-7 M) [14]; no binding (tested: 5e-7 M) [15]. B4: no binding (tested: 5e-7 M) [16].

B5: VEGFBII025 (VHH)
chain: EVQLVESGGGLVQAGGSLRLSCAASGRTFSNYAMGWFRQAPGKERVLVADISSSGINTYVADAVKGRFTISRDNAKNTVYLQMNSLKPEDTAVYYCAASAWWYSQMARDNYRYWGQGTQVTVSSGGGGSGGGGSGGGGSGGGGSGGGGSGGGGSGGGGSGGGGSEVQLVESGGGLVQTGDSLRLSCEVSGRTFSSYSMGWFRQAQGKEREFVVAISKGGYKYDSVSLEGRFTISKDNAKNTVYLQINSLKPEDTAVYYCASSRAYGSSRLRLADTYEYWGQGTQVTVSS
notes: bivalent (heterodimeric) VHH; also called VEGFBII10E07-40GS-23B04
B5: no binding (tested: about 5e-7 M) [13]; no binding (tested: about 5e-7 M) [14]; no binding (tested: 5e-7 M) [15]. B5: no binding (tested: 5e-7 M) [16].

B6: VEGFBII021 (VHH)
chain: EVQLVESGGGLVQTGDSLRLSCEVSGRTFSSYSMGWFRQAQGKEREFVVAISKGGYKYDSVSLEGRFTISKDNAKNTVYLQINSLKPEDTAVYYCASSRAYGSSRLRLADTYEYWGQGTQVTVSSGGGGSGGGGSGGGGSGGGGSGGGGSGGGGSGGGGSGGGGSEVQLVESGGGLVQPGGSLRLSCVASGIRFMSMAWYRQAPGKHRELVARISSGGTTAYVDSVKGRFTISRDNSKNTVYLQMNSLKAEDTAVYYCNTFSSRPNPWGAGTQVTVSS
notes: bivalent (heterodimeric) VHH; also called VEGFBII23B04-40GS-5B05
B6: no binding (tested: about 5e-7 M) [13]; no binding (tested: about 5e-7 M) [14]; no binding (tested: 5e-7 M) [15]. B6: no binding (tested: 5e-7 M) [16].

B7: VEGFBII119G11 (VHH)
VHH: EVQLVESGGGLVQPGGSLRLSCAASGIRFMSMAWYRQAPGKQRELVARISSGGTTAYADSVKGRFTISRDNSKNTVYLQMNSLRAEDTAVYYCNTFSSRPNPWGQGTLVTVSS
notes: Humanization variant of VEGFBII5B05; tested as periplasmic extract
With B7 the “binding level (RU)” value [17] was 234 RU and the koff [17] was 0.0775 s⁻¹.

B8: VEGFBII120E10 (VHH)
VHH: B7 VHH with A23V, M30I, Q42H, A58V, R84K, Q105A, L108Q
notes: M30I variant of VEGFBII5B05; tested as periplasmic extract
For B8, the “binding level (RU)” value [17] was 257 RU and the koff [17] was 0.0468 s⁻¹.
